Results published in the DeepSol protein solubility set.

Assay: soluble on expression in E. coli; label from the status in PepcDB or PDB records

Row | Sequence | soluble on expression in E. coli
1 | MASGDLVHYVITVMLHEDTLTEINELNNYLTRDGFLLTMTDDEGNIHELGTNTFGLISTQSEEEIRELVSGLTQSATGKDPEITITTWEEWNSNRK | not soluble
2 | MDQLSAMRAFVRVVETGSFSATGKEMNTSQTTISKKVAALENQIGVKLLTRSSRDHSLTPAGSDYYQTCVNILSELDEVEAKVRSKATLPQGSIRITAPVAFGRFLLAPIVAEFFQHYPDIKIDLLLNDKHVNLISEGIDVAIRAKNLEDSSLVARHLLDNPMYLFASPDYLEQYGEPKHPNELSTHNCLIYSGLQDAHIWNFNHGEKEYSVPVKGNFQSDNGDVLLDVALTGVGIVSLPIWMAKAHLTSGHLRQIMTKYSGQQLPINAIYPQRRYTPLKVRCFIDFLKQKLSE | not soluble
3 | MLIRSETPADQRAIFDVTQAAFRGHPHSEQTEAYIVQALRAAGALTLSLVAELDARVVGHAAFSPVQISDGSPSWFGLGPVSVDPAHQGRGIGTALIEHGLARLQARGAAGCVLVGEPAYYGRFGFRPEPGLVLPDMPPTHFLALTFGAPARGTVTYHPGFAARDA | not soluble
4 | MADRANNDDDVDRQPLPIADDADDDVDGIDEMFNNEDEDPEDEEGENLFGDDMERDYREQPELDQYSESGMDDASDVGSLSVSARRAAEREMAQRDQLLDDDALMYEDGDSEEVDTRRRGRGRRGRGDAADDDSVPMEEEDIPVDILENIRGRTIRDHVSDEAVAKEIERRFKNFLRSFHEPGNKQTKYIQMIKSMAADNRESLEVSFTDLSDDNGEQNISYFLPEAPNEMLAIMDRAATEVVMNMYPFYSRVCNEIKVRISQLPVEEDIRMLRQVHLNMLIRTAGVVTIASGILPQLAVVKYDCVACGYLLGPFVQQNDEEVRPTICPSCQGKGPFELNVENTVYHNYQRITMQESPNKVAAGRLPRSKDVILLGDLCDSCKPGDEIEVTGVYTNNFDGSLNYKQGFPVFNTLIHANHITNKDKMASDQLTDEDIKAIRELSQDPNISQRVFSSIAPSIYGHDDVKRAIALALFRGEAKNPGAKHRLRGDINVLLCGDPGTAKSQFLRYAAHIAPRSVLTTGQGASAVGLTAYVQRHPVTREWTLEAGAMVLADKGVCLIDEFDKMSDQDRTSIHEAMEQQSISISKAGIVTSLHARCTVIAASNPIGGRYNPTRTFAENVDLTEPILSRFDVLCVIRDSVDSVEDERLAKFVVGNHRTHHPDAKKIVKEGDELEEDQMDERTGVRLIPQDLLRKYIIYAREKCHPTLPEQHSEKFSNIFAQMRKESMATGSVAITVRHVESMIRLSEAHAKLHLRSYVNDEDCAAAIRVMLESFVNTQKASIMRMMKKTFSRHLTENRSANELLLFILKQLIRQQMHYATARAAAGTILQSVTIPESEFIEKAQQLRIENVKPFYTSEIFASNNFLYDPSKKTIVQEIF | not soluble
5 | MGSDKIHHHHHHMSRITDYGFLFQTTFGTSKTNLVNNIQLSQMNSSSVQKQLKAAGIDTNSKKYKAALSEMMKNGNGAMFTNVQAIKNLMSQYDKNGDWIDPNTGLTGLAVTDENRNSYKHIISIPESSREEMFELAKKEFLNENGTLNGDTTKRESVYNNLYRKMDKDDRLSAGWTMEQYEHQYRQAFAEAAKAADPTWKAGKPIPAGALDGITRESVESGKKSVDIKI | not soluble
6 | MDNELTSRPDSIMDTEPTTLPDSAMDTKPTNLPDFPSTSQEPVSRRTRSRTLSDNSNAVWKRERRSRETSQESESRLRMDWERKKEKRASMSEEEKAEMKYKKRVWMKKKRNEVAKTHDTSSVANPNYLGSMRCVCKNCNARFFQGIHFFKV | not soluble
7 | TKDLPIHACSYCGIHDPACVVYCNTSKKWFCNGRGNTSGSHIVNHLVRAKCKEVTLHKDGPLGETVLECYNCGCRNVFLLGFIPAKADSVVVLLCRQPCASQSSLKDINWDSSQWQPLIQDRCFLSWLVKIPSEQEQLRARQITAQQINKLEELWKENPSATLEDLEKPGVDEEPQHVLLRYEDAYQYQNIFGPLVKLEADYDKKLKESQTQDNITVRWDLGLNKKRIAYFTLPKTDSDMRLMQGDEICLRYKGDLAPLWKGIGHVIKVPDNYGDEIAIELRSSVGAPVEVTHNFQVDFVWKSTSFDRMQSALKTFAVDETSVSGYIYHKLLGHEVEDVIIKCQLPKRFTAQGLPDLNHSQVYAVKTVLQRPLSLIQGPPGTGKTVTSATIVYHLARQGNGPVLVCAPSNIAVDQLTEKIHQTGLKVVRLCAKSREAIDSPVSFLALHNQIRNMDSMPELQKLQQLKDETGELSSADEKRYRALKRTAERELLMNADVICCTCVGAGDPRLAKMQFRSILIDESTQATEPECMVPVVLGAKQLILVGDHCQLGPVVMCKKAAKAGLSQSLFERLVVLGIRPIRLQVQYRMHPALSAFPSNIFYEGSLQNGVTAADRVKKGFDFQWPQPDKPMFFYVTQGQEEIASSGTSYLNRTEAANVEKITTKLLKAGAKPDQIGIITPYEGQRSYLVQYMQFSGSLHTKLYQEVEIASVDAFQGREKDFIILSCVRANEHQGIGFLNDPRRLNVALTRARYGVIIVGNPKALSKQPLWNHLLNYYKEQKVLVEGPLNNLRESLMQFS | soluble
8 | MKTIHIYTNGRLEEKRGDIVREFPLVLQVNGREIATLIASPHDLRFLVAGFLRNQGFVESAADFHMLAVCDEFGIANVRIRQELPERLKPVLTSGCGTGITFTLETGGREAAVAPSPAVAPEAVFRLMEELARQADNYRNHGGIHSAAVGDGEGNLLLFAEDIGRHNTLDRIAGEALLKGIDLAGRILVTSGRVSTEMASKCARLGIALVASRTSATDMAATLCHEAGICLLGYVRGGKFTVYTHSDRLLVPEQAAASLPGPVPRGRIPGVTGVILAGGQSSRMGSNKALLPYRGGRFIESIHRQLSEYFDEVIVVTNTPEQYEFLPCRKVTDIHEGMGALAGIHAGLHHSSNPAAFVVACDMPYLNGDLIRHLASMADPGGVLIPESPTGLEPLHAVYGKGCLAAIEATLLSGQRRIVSFFGRTNVNRVNVAQIAAFDPEFNSFRNINTPTDYYRLREIERGEALPAPADERAGASALEHHHHHH | not soluble
9 | SNRTSAKSNLMLILLGLQMKEISNSDLYKLKEVRSVVTSLASFLFQQQNVGVMKSFDSLEKEAFRDLVNRLVSQGLIGLKDKTSETFDLLPLKNLFEYAEKRISVLMKLQCYTGTVQLSHVQEKLHLPYITTNGIVDVFKECLKRTKKQYPEVLKNWWIDLDPKNGMEDQNSGILLHLEYAAAYS | soluble
10 | LGASWHRPDKCCLGYQKRPLPQVLLSSWYPTSQLCSKPGVIFLTKRGRQVCADKSKDWVKKLMQQLPVTAR | soluble
11 | MAGDPNSMKYSDLRDFIAQLESRELLKRIDYPVSPHLEMTLVSDKVLRSGGPALLFTNTPNYNMPVLTNLFGTVERVALGMGEESIVALREIGKLLAALKEPDPPKGFKDAFSKLPLLKQALNMAPKYVSGAECQTHVWEKDEVDLTLLPIQTCWPGDVAPLITWGLVTTRGPHQSRENMGIYRQQLLSKNKLIMRWLSHRGGALDYQAWQQEYPKERFPVAVTLGADPATILAAVTPVPDTLSEYAFAGLLRGQRTRLTRCIGNDLHVPASAEIVLEGYLEPGNEAPEGPYGDHTGYYNEVQSFPVFTVERITHRDKPIYHSTYTGRPPDEPAILGVALNEVFIPLLQKQFPEIVDFYLPPEGCSYRLAVVTIKKQYPGHAKRIMMAVWSFLRQFMYTKFVIVCDDDVDARNWQDVIWAMTTRMDPSRDTVMVENTPIDYLDFASPVSGLGSKMGMDATSKWPGETQREWGKPITMDEDVLNRVNGYWSLLGLKLEHHHHHH | not soluble
12 | MSLNQASLERNELHNTIWKVANELRGSVDGWDFKQYVLGILFYRYISENMTHYINKEERKRDPSFDYAKLSDEKAERGRKHLIEQKGFFIPPSALFCNALKNACHNEDLNVTLQNIFNEIEKSSLGTPSEENVKGLFADLDVNSNKLGSSHQNRVEKLTKILEAIGGMQLGDYLKSGIDVFGDAYEYLMAMYASNAGKSGGEFFTPQEVSELLAKITLHGQESVNKVYDPCCGSGSLLLQFSKVLGDKNVSKGYFGQEINLTTYNLCRINMFLHDINYSKFHIAHGDTLLDPKHEDDEPFDAIVSNPPYSTKWVGDSNPILINDERFSPAGVLAPKNAADLAFTMHMLSYLSNSGTAAIVEFPGVLYRGNAEAKIREYLVKENVIDCVIALPDNLFFGTSIATCILVLKKNKQDDTTLFIDASKEFVKEGKKNKLKERNREKILQTYIERKEIKHFCALANIEKIKENDYNLSVNRYVEQEDTKEAIDIKALNSEIAQIVEKQSALRNRLESIIKELEGGQNEGHHHHHH | soluble
13 | MSLAQGRQVIGLDIGTTSTIAILVRLPDTVVAVASRPTTLSSPHPGWAEEDPAQWWDNARAVLAELKTTAGESDWRPGGICVTGMLPAVVLLDDRGAVLRPSIQQSDGRCGDEVAELRAEVDSEAFLARTGNGVTQQLVTAKLRWIERHEPAVFGAIATVCGSYDYINMLLTGERVVDRNWALEGGFIDLASGTVEADLVALAHIPPSAVPPAHPTHRVLGAVTAEAAALTGLPTGLPVYGGAADHIASALAAGITRPGDVLLKFGGAGDIIVASATAKSDPRLYLDYHLVPGLYAPNGCMAATGSALNWLAKLLAPEAGEAAHAQLDALAAEVPAGADGLVCLPYFLGEKTPIHDPFASGTFTGLSLSHTRGHLWRALLEAVALAFRHHVAVLDDIGHAPQRFFASDGGTRSRVWMGIMADVLQRPVQLLANPLGSAVGAAWVAAIGGGDDLGWDDVTALVRTGEKITPDPAKAEVYDRLYRDFSALYATLHPFFHRSREGHHHHHH | soluble
14 | MESLGSIALFVLVTETRSFTLAGKRLGISSSGVGKSVGRLEESLGVRLFHRSTRSIALTLEGSIFLDRCRRILSELDAAQLELSNARDLPKGRLRISVPLVFGLVMPVVIQFMRTYPEIELDIDFSDRMVDIIDEGFDVVLRTGEPSDSRLMSKRMGSFQLCIVGSPDYFARHGLPEQPADLIHHACLQHKFPSTGKFEHWPLRREPGSEDFELPQTMVCNTTEVLVEVARAGLGITCLPDFMLASAIRKGELIPILSDYTLHTGSFRLFWASSKHLSVRLRVFIDFMHANLFAPARVGQEGRS | not soluble
15 | LLLYIHGFNSSPLSMKANLMREYCAQHRPDIKVIVPQLPCFPEQAAQLLLDIVEQYKDDYNIGLVGSSLGGYMSTWLNAKYGFKAVVVNPAVKPYELLVDYLGEQTNPYTRETYTLEACHIDELKALDVQSIASPHSFWLLQQTEDEVLDYRQAVDKFAKAKQTVEQGGDHSFVGFERYPAKIIEFLE | not soluble
16 | MQSHTFTRSRGVPIYMNGSVSHQRLYDRLSEPSTSRQLPRSISLAPTGHHRTGSTRIDREQVDTSLPVTYIPRFHDESAVRRMNYRQIPGTDIRMSKIGFGAAAIGGMFGNVEDSIIKIVETAIKQGINYIDTGYWYSQSRSESILGKALSKIPRKAYYISTKVGRFELDYARTFDFRADKILESLTNSLKRLQLTYIDICYVQIHDADFAPNESIVLYETLQALEMAKSSGKIRHIGLTGYPLGKLVYSFRYVWNAPKLYFSVNLSITRNIAVINSGALCWGLLTEKGPPPWHPASDEIKEACLAATTYCSSKNISISKLALDYALNFPNVICCLVGMDSVQQVLDNLELSNFSRITDVEQRVRDRIMRRYLDRLENAGWEGVDVAQYWKKLKKLGLTALATHRHSSVESLASTLNGFSLYSSNSSSELRTPRRRRPF | not soluble
17 | MGHHHHHHSHMKQWKEKKKKKKPIQEPEVPQIDVPNLKPIFGIPLADAVERTMMYDGIRLPAVFRECIDYVEKYGMKCEGIYRVSGIKSKVDELKAAYDREESTNLEDYEPNTVASLLKQYLRDLPENLLTKELMPRFEEACGRTTETEKVQEFQRLLKELPECNYLLISWLIVHMDHVIAKELETKMNIQNISIVLSPTVQISNRVLYVFFTHVQELFGNVVLKQVMKPLRWSNMATMPTLPETQAGIKEE | soluble
